According to patent US9469685 (UNIVERSITY OF CHICAGO, dated 2016):

Biological target: HA of the 1918 pandemic strain, A/Brevig Mission/1/1918 (H1N1) (influenza A virus A/Brevig …, UniProt Q9WFX3 18-529)
Test: ELISA (FIG. 3B, FIG. 8A)

HA of the 1918 pandemic strain, A/Brevig Mission/1/1918 (H1N1), sequence (Q9WFX3 18-529 limits assumed): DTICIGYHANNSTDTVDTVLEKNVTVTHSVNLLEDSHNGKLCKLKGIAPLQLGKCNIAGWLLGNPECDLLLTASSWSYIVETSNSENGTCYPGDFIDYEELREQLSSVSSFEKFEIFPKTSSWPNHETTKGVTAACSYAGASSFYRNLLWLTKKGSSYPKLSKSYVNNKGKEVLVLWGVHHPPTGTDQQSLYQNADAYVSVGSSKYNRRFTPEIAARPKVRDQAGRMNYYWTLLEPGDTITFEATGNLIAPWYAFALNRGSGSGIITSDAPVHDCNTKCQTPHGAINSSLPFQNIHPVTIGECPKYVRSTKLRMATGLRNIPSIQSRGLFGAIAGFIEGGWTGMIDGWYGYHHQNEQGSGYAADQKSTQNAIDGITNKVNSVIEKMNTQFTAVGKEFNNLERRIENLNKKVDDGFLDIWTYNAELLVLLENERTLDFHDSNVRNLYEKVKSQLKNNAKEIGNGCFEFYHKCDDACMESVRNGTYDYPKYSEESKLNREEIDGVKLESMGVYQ

B1: 70-5B03 (antibody, V domains shown)
VH: QVQLVQSGAEVKKPGSSVKVSCKASGGTFRNFAVSWVRQAPGQGPEWMGGIIAIFGTAKYAQKFQGRVTISADESTRIVQMELSSLRSDDTAIYYCASSSGSYYGDYFDYWGQGTLVTVSS
VL: EIVMTQSPATLSVSPGERATLSCRASQSVSSNLAWYQQTPGQAPRLLIYAASSRATGIPARFSGSGSGTEFTLSISSLQPEDFAVYYCQQYNNWPRTFGQGTKVEIK
binding result: binds
